Measurements reported in patent US20150045540A1 (published 2015).

T1: Placenta Growth Factor (PlGF), human (human, UniProt P49763 21-149)
T1 chain: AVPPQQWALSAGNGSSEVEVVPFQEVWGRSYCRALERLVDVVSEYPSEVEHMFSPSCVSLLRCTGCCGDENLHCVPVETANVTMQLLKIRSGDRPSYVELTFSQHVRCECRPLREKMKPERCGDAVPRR


Key:
[1] = target: Hepatocyte Growth Factor (HGF), human (human, UniProt P14210 32-728); experiment: ELISA
[2] = target: T1, Placenta Growth Factor (PlGF), human; experiment: ELISA

Chain of Hepatocyte Growth Factor (HGF), human (P14210 32-728): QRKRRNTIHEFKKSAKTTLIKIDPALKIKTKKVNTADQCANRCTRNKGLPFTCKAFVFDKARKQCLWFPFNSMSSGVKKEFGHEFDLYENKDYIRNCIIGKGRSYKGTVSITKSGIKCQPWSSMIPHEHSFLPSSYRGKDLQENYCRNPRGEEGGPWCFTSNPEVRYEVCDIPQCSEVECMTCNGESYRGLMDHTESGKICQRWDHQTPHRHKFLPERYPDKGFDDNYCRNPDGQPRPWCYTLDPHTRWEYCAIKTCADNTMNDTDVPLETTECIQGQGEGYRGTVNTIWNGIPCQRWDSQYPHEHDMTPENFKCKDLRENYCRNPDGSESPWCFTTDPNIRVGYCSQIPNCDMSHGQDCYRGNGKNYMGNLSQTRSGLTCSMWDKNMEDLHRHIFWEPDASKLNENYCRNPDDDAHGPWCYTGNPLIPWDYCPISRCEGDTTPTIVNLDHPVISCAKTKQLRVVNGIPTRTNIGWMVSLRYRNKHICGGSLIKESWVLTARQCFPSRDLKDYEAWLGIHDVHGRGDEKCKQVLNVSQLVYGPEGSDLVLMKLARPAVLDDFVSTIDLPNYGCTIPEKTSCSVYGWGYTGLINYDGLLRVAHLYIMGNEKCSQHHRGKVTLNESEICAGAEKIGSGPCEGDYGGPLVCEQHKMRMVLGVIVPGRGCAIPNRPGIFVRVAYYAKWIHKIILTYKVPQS

Row | Binder | EC50 [1] [nM] | EC50 [2] [nM]
1 | HC 9/SLC 8 (antibody) chain 1: GQGTLVTVSSASTKGPSVFQPVLHQPPAMSSALGTTIRLTCTLRNDHDIGVYSVYWYQQRPGHPPRFLLRYFSQSDKSQGPQVPPRFSGSKDVARNRGYLSISELQPEDEAMYYCAMGARSRCWPRGFQSKHNSVTHVFGSGTQLTVLSQPKATPSVTLFPPSSEELQANKATLVCLMNDFYPGILTVTWKADGTPITQGVEMTTPSKQSNNKYAASSYLSLTPEQWRSRRSYSCQVMHEGSTVEKTVAPAECS chain 2: MSWAPVLLMLFVYCTGCGPQPVLHQPPAMSSALGTTIRLTCTLRNDHDIGVYSVYWYQQRPGHPPRFLLRYFSQSDKSQGPQVPPRFSGSKDVARNRGYLSISVTHVFGSGTQLTVLSQPKATPSQVQLVQ | 0.061 | 0.063
2 | HC 8/SLC 4 (antibody) chain 1: GQGTLVTVSSASTKGPSVQPVLHQPPAMSSALGTTIRLTCTLRNDHDIGVYSVYWYQQRPGHPPRFLLRYFSQSDKSQGPQVPPRFSGSKDVARNRGYLSISELQPEDEAMYYCAMGARSRCWPRGFQSKHNSVTHVFGSGTQLTVLSQPKATPSVTLFPPSSEELQANKATLVCLMNDFYPGILTVTWKADGTPITQGVEMTTPSKQSNNKYAASSYLSLTPEQWRSRRSYSCQVMHEGSTVEKTVAPAECS chain 2: MSWAPVLLMLFVYCTGCGPQPVLHQPPAMSSALGTTIRLTCTLRNDHDIGVYSVYWYQQRPGHPPRFLLRYFSQSDKSQGPQVPPRFSGSKDVARNRGYLSISVTHVFGSGTQLTVLSQPKQVQLVQ | 0.071 | 0.281
3 | HC 6/SLC 5 (antibody) chain 1: GQGTLVTVSSASTKGPQPVLHQPPAMSSALGTTIRLTCTLRNDHDIGVYSVYWYQQRPGHPPRFLLRYFSQSDKSQGPQVPPRFSGSKDVARNRGYLSISELQPEDEAMYYCAMGARSRCWPRGFQSKHNSVTHVFGSGTQLTVLSQPKATPSVTLFPPSSEELQANKATLVCLMNDFYPGILTVTWKADGTPITQGVEMTTPSKQSNNKYAASSYLSLTPEQWRSRRSYSCQVMHEGSTVEKTVAPAECS chain 2: MSWAPVLLMLFVYCTGCGPQPVLHQPPAMSSALGTTIRLTCTLRNDHDIGVYSVYWYQQRPGHPPRFLLRYFSQSDKSQGPQVPPRFSGSKDVARNRGYLSISVTHVFGSGTQLTVLSQPKAQVQLVQ | 0.066 | 0.251
4 | HC 3/SLC 6 (antibody) chain 1: GQGTLVTVSSASTQPVLHQPPAMSSALGTTIRLTCTLRNDHDIGVYSVYWYQQRPGHPPRFLLRYFSQSDKSQGPQVPPRFSGSKDVARNRGYLSISELQPEDEAMYYCAMGARSRCWPRGFQSKHNSVTHVFGSGTQLTVLSQPKATPSVTLFPPSSEELQANKATLVCLMNDFYPGILTVTWKADGTPITQGVEMTTPSKQSNNKYAASSYLSLTPEQWRSRRSYSCQVMHEGSTVEKTVAPAECS chain 2: MSWAPVLLMLFVYCTGCGPQPVLHQPPAMSSALGTTIRLTCTLRNDHDIGVYSVYWYQQRPGHPPRFLLRYFSQSDKSQGPQVPPRFSGSKDVARNRGYLSISVTHVFGSGTQLTVLSQPKATQVQLVQ | 0.057 | 0.163
5 | HC 4/SLC 6 (antibody) chain 1: GQGTLVTVSSASTKQPVLHQPPAMSSALGTTIRLTCTLRNDHDIGVYSVYWYQQRPGHPPRFLLRYFSQSDKSQGPQVPPRFSGSKDVARNRGYLSISELQPEDEAMYYCAMGARSRCWPRGFQSKHNSVTHVFGSGTQLTVLSQPKATPSVTLFPPSSEELQANKATLVCLMNDFYPGILTVTWKADGTPITQGVEMTTPSKQSNNKYAASSYLSLTPEQWRSRRSYSCQVMHEGSTVEKTVAPAECS chain 2: MSWAPVLLMLFVYCTGCGPQPVLHQPPAMSSALGTTIRLTCTLRNDHDIGVYSVYWYQQRPGHPPRFLLRYFSQSDKSQGPQVPPRFSGSKDVARNRGYLSISVTHVFGSGTQLTVLSQPKATQVQLVQ | 0.063 | 0.208
6 | HC 7/SLC 6 (antibody) chain 1: GQGTLVTVSSASTKGPSQPVLHQPPAMSSALGTTIRLTCTLRNDHDIGVYSVYWYQQRPGHPPRFLLRYFSQSDKSQGPQVPPRFSGSKDVARNRGYLSISELQPEDEAMYYCAMGARSRCWPRGFQSKHNSVTHVFGSGTQLTVLSQPKATPSVTLFPPSSEELQANKATLVCLMNDFYPGILTVTWKADGTPITQGVEMTTPSKQSNNKYAASSYLSLTPEQWRSRRSYSCQVMHEGSTVEKTVAPAECS chain 2: MSWAPVLLMLFVYCTGCGPQPVLHQPPAMSSALGTTIRLTCTLRNDHDIGVYSVYWYQQRPGHPPRFLLRYFSQSDKSQGPQVPPRFSGSKDVARNRGYLSISVTHVFGSGTQLTVLSQPKATQVQLVQ | 0.062 | 0.153

More lines, now with the values ahead:

Row | EC50 [1] [nM] | EC50 [2] [nM] | Binder
7 | 0.056 | 0.069 | HC 8/SLC 8 (antibody) chain 1: GQGTLVTVSSASTKGPSVQPVLHQPPAMSSALGTTIRLTCTLRNDHDIGVYSVYWYQQRPGHPPRFLLRYFSQSDKSQGPQVPPRFSGSKDVARNRGYLSISELQPEDEAMYYCAMGARSRCWPRGFQSKHNSVTHVFGSGTQLTVLSQPKATPSVTLFPPSSEELQANKATLVCLMNDFYPGILTVTWKADGTPITQGVEMTTPSKQSNNKYAASSYLSLTPEQWRSRRSYSCQVMHEGSTVEKTVAPAECS chain 2: MSWAPVLLMLFVYCTGCGPQPVLHQPPAMSSALGTTIRLTCTLRNDHDIGVYSVYWYQQRPGHPPRFLLRYFSQSDKSQGPQVPPRFSGSKDVARNRGYLSISVTHVFGSGTQLTVLSQPKATPSQVQLVQ
8 | 0.049 | 0.045 | HC 8/SLC 9 (antibody) chain 1: GQGTLVTVSSASTKGPSVQPVLHQPPAMSSALGTTIRLTCTLRNDHDIGVYSVYWYQQRPGHPPRFLLRYFSQSDKSQGPQVPPRFSGSKDVARNRGYLSISELQPEDEAMYYCAMGARSRCWPRGFQSKHNSVTHVFGSGTQLTVLSQPKATPSVTLFPPSSEELQANKATLVCLMNDFYPGILTVTWKADGTPITQGVEMTTPSKQSNNKYAASSYLSLTPEQWRSRRSYSCQVMHEGSTVEKTVAPAECS chain 2: MSWAPVLLMLFVYCTGCGPQPVLHQPPAMSSALGTTIRLTCTLRNDHDIGVYSVYWYQQRPGHPPRFLLRYFSQSDKSQGPQVPPRFSGSKDVARNRGYLSISVTHVFGSGTQLTVLSQPKATPSVQVQLVQ
9 | ~0.041 | 0.057 | HC 3/SLC 15 (antibody) chain 1: GQGTLVTVSSASTQPVLHQPPAMSSALGTTIRLTCTLRNDHDIGVYSVYWYQQRPGHPPRFLLRYFSQSDKSQGPQVPPRFSGSKDVARNRGYLSISELQPEDEAMYYCAMGARSRCWPRGFQSKHNSVTHVFGSGTQLTVLSQPKATPSVTLFPPSSEELQANKATLVCLMNDFYPGILTVTWKADGTPITQGVEMTTPSKQSNNKYAASSYLSLTPEQWRSRRSYSCQVMHEGSTVEKTVAPAECS chain 2: MSWAPVLLMLFVYCTGCGPQPVLHQPPAMSSALGTTIRLTCTLRNDHDIGVYSVYWYQQRPGHPPRFLLRYFSQSDKSQGPQVPPRFSGSKDVARNRGYLSISVTHVFGSGTQLTVLSQPKATPSVTGGGGSQVQLVQ
10 | 0.049 | 0.13 | HC 3/SLC 9 (antibody) chain 1: GQGTLVTVSSASTQPVLHQPPAMSSALGTTIRLTCTLRNDHDIGVYSVYWYQQRPGHPPRFLLRYFSQSDKSQGPQVPPRFSGSKDVARNRGYLSISELQPEDEAMYYCAMGARSRCWPRGFQSKHNSVTHVFGSGTQLTVLSQPKATPSVTLFPPSSEELQANKATLVCLMNDFYPGILTVTWKADGTPITQGVEMTTPSKQSNNKYAASSYLSLTPEQWRSRRSYSCQVMHEGSTVEKTVAPAECS chain 2: MSWAPVLLMLFVYCTGCGPQPVLHQPPAMSSALGTTIRLTCTLRNDHDIGVYSVYWYQQRPGHPPRFLLRYFSQSDKSQGPQVPPRFSGSKDVARNRGYLSISVTHVFGSGTQLTVLSQPKATPSVQVQLVQ
